Experiments:
[1] = target: T1, mouse CD33 extracellular domain with 6xHis-tag (mouse, UniProt Q63994 18-240); assay: ELISA: CD33-His protein at 5 µg/mL captured on Ni-NTA plate, antibody at 10 µg/mL in triplicate, HRP anti-human Fc detection, OD450
T1 construct: range 18-240; also called moCD33-His; moCD33(ECD)-His
T1 sequence: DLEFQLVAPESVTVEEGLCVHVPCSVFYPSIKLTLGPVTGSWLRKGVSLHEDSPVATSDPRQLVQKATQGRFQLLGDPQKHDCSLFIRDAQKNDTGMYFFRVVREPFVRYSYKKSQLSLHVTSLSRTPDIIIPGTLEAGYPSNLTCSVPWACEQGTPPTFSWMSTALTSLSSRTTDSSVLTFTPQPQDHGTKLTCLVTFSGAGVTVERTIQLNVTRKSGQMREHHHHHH
Experimental: Binding to Recombinant CD33 Protein. Binding to CD33 protein was carried out by ELISA using human CD33-His (full-length or IgC2 domain), cynomolgus monkey CD33-His and mouse CD33-His. Recombinant proteins at 5 μg/mL were captured by pre-blocked Ni-NTA plates. Candidate antibodies were added at 10 μg/mL in triplicate and detected using horseradish peroxidase (HRP)-conjugated anti-human Fc antibody. […] No binding was detected to cynomolgus or mouse CD33 for either TDI-Y-006 and TDI-Y-007. 1J19 and H195 only bound to full-length human CD33 ECD but not to IgC2 as these antibodies target the IgV domain.

[2] = target: T2, human CD33, full length, on cells (human, UniProt P20138 18-364); assay: flow cytometry, 3T3-CD33 cells
T2 construct: NIH-3T3 cells stably overexpressing full-length human CD33, or AML lines U937 and Set2 with endogenous CD33; the cell line is named under assay; also called 3T3-huCD33; 3T3-CD33
T2 sequence (P20138 18-364): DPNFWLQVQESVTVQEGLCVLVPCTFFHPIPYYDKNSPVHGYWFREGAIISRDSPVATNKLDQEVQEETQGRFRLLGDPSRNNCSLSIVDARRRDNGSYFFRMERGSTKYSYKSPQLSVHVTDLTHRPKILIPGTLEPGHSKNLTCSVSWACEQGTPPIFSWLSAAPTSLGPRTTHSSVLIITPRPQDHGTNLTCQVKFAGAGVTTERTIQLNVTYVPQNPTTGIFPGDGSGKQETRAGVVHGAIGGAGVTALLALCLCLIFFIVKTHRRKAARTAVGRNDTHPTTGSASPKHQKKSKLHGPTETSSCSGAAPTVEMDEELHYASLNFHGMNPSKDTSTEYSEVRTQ
Experimental: (§1) Binding to CD33 on Cells. To assess the binding of TDI-Y-006, TDI-Y-007 and 1J19 to cell surface-bound CD33, 3T3 cells overexpressing CD33, as well as the U937 AML cell line, which expresses endogenous CD33, were used. U937 CD33KO or NALM6 were included as negative controls. Briefly, NALM6, U937 CD33+ and KO cells were blocked with human IgG Fc for 20 minutes on ice. The recombinant antibodies were then serially diluted starting at 100 μg/mL concentration and added for 30 minutes on ice. AlexaFluor 647-conjugated goat anti-human F(ab′)2 was added to cells for 30 minutes on ice, washed and analyzed by flow cytometry, normalized to secondary only staining (MFI ratio). EC50 values were determined by non-linear regression.

[3] = target: T2, human CD33, full length, on cells; assay: flow cytometry, U937 cells
Experimental: as §1

[4] = target: T3, human CD33 extracellular domain with 6xHis-tag (human, UniProt P20138 18-259); assay: summary table; binding affinity to soluble CD33 (BLI)
T3 construct: Bought (R&D Systems, Acro Biosystems); also called huCD33-His; huCD33(ECD)-His
T3 sequence (P20138 other isoform, or with tags, fused parts or gaps): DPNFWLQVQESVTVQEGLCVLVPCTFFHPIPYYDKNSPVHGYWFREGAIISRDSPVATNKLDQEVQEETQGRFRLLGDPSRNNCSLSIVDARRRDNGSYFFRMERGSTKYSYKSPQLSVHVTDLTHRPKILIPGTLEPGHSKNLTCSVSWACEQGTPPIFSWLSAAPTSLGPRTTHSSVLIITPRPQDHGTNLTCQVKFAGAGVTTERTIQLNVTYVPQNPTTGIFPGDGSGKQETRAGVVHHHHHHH
Experimental: (§2) The binding affinity to human CD33 protein was measured by biolayer interferometry (BLI) using an Octet Red96e. All experiments were carried out using kinetic buffer (PBS pH 7.4, 0.01% BSA, 0.002% Tween-20). The antibodies were captured by an anti-huFc biosensor and a 7-point, 2-fold dilution series of huCD33-His was used as analyte. The data was processed by double reference subtraction, and response curves were globally fit to a 1:1 Langmuir binding model. […] The binding affinities are similar to the H195 reference antibody.

[5] = target: T2, human CD33, full length, on cells; assay: summary table; flow cytometry, AML cell line U937; U937 AML cell line (endogenous CD33)
Experimental: as §1

[6] = target: T2, human CD33, full length, on cells; assay: flow cytometry on 3T3 cells overexpressing human CD33, antibody titration, AlexaFluor 647 goat anti-human F(ab')2 detection, MFI ratio to secondary only
Experimental: as §1

[7] = target: T2, human CD33, full length, on cells; assay: summary table; flow cytometry, 3T3 cells overexpressing CD33
Experimental: as §1

[8] = target: T3, human CD33 extracellular domain with …; assay: BLI (Octet Red96e), antibody on anti-huFc sensor, huCD33-His as analyte, 1:1 fit
Experimental: as §2

[9] = target: T3, human CD33 extracellular domain with …; assay: BLI, huCD33-His on anti-penta-His sensor, no competitor
Experimental: Epitope Binning. Epitope binning was carried out by a BLI competition experiment using an Octet Red96e. Human CD33-His was captured by an anti-penta-His biosensor. A 4×4 matrix with TDI-Y-006, TDI-Y-007, 1J19 and H195 was tested. A reference biosensor was used to determine the overall capture level for each antibody. After pre-binding the antibodies at saturation levels, the biosensors were dipped into antibody solutions to assess competition. […] However, when TDI-Y-006 was pre-bound, binding of TDI-Y-007 was blocked. […] Similarly, 1J19 and H195 have epitopes that partially overlap. No competition was observed between antibodies binding to the membrane-proximal IgC2 domain (TDI-Y-006 and TDI-Y-007) and antibodies binding to the membrane-distal IgV domain (1J19 and H195).

[10] = target: T2, human CD33, full length, on cells; assay: flow cytometry, purified mAb, U937 cells
[11] = target: T4, human CD33 IgC2 type domain with 6xHis-tag (human, UniProt P20138 140-259); assay: ELISA, hybridoma supernatant
T4 construct: Produced at LakePharma; also called huCD33IgC2-His; CD33 IgC2-6xHis
T4 sequence (P20138 other isoform, or with tags, fused parts or gaps): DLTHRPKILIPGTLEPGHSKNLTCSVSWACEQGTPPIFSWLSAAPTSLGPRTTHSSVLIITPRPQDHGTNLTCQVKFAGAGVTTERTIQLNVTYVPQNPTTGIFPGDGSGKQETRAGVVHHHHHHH

[12] = target: T3, human CD33 extracellular domain with …; assay: ELISA, hybridoma supernatant
[13] = target: T2, human CD33, full length, on cells; assay: flow cytometry, purified mAb, Set2 cells
[14] = target: T5, human CD33 IgC2 domain only, on NIH-3T3 cells (human, UniProt P20138 140-364); assay: flow cytometry, hybridoma supernatant, 3T3-huCD33IgC2 cells
T5 construct: the whole entry is named here; also called 3T3-huCD33IgC2; 3T3 CD33-IgC2
T5 sequence (P20138 140-364 limits assumed): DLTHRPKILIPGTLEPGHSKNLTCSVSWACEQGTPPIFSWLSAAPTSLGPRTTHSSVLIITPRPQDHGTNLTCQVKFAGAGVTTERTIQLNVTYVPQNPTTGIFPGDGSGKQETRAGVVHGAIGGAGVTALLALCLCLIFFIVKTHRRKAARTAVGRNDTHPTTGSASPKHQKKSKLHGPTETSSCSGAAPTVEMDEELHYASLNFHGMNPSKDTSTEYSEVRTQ

[15] = target: T2, human CD33, full length, on cells; assay: flow cytometry, hybridoma supernatant, U937 cells
[16] = target: T2, human CD33, full length, on cells; assay: flow cytometry, hybridoma supernatant, 3T3-huCD33 cells
[17] = target: T2, human CD33, full length, on cells; assay: summary table; flow cytometry, 3T3 cells overexpressing CD33; 3T3 cells overexpressing CD33
Experimental: as §1

[18] = target: T1, mouse CD33 extracellular domain with …; assay: ELISA on recombinant moCD33-His, purified hybridoma subclone antibody, readout RLU; antibody concentration not given

B1: TDI-Y-006 (antibody, V domains shown)
VH: EVQLLESGGGLVQPGGSLRLSCAASGFTFSTYAMSWVRQAPGKGLEWVSAISGRGGSTYYTDSVKGRFTISRDNSKNTVSLQMNSLRAEDTAVYYCAGRGDYYYYYGMDVWGQGTTVTVSA
VL: DIVMTQSPLSSPVTLGQPASFSCRSSQSLVYSDGNTYLSWLQQRPGQPPRLLIYKISNRFSGVPDRFSGSGAGTDFTLKISRVEAEDVGVYYCMQSTQFPHTFGQGTKLEIK
notes: also called 3P14 (recombinant, human IgG1 constant region)
[1]
  binding result: no binding (tested: 10 µg/mL)
[2]
  EC50: 5 nM
[3]
  EC50: 8.5 nM
[4]
  Kd: 1.2 nM
  koff: 0.000359 s⁻¹
  kon: 296000 M⁻¹ s⁻¹
[5]
  EC50: 8.5 nM
[6]
  EC50 (read off the curve): ~8 nM
[7]
  EC50: 5 nM
[8]
  Kd: 1.21 nM
  kon: 296000 M⁻¹ s⁻¹
[9]
  BLI total binding capacity (Reference Biosensor): 0.86

B2: 3-P14 (hybridoma antibody) (antibody, V domains shown)
VH: B1 VH
VL: B1 VL
notes: AlivaMab mouse hybridoma antibody; also called 3-P14-A
[10]
  EC50: 3.27 nM
[11]
  RLU: 107000 RLU
[12]
  RLU: 546000 RLU
[13]
  EC50: 2.4 nM
[14]
  MFI: 544000 MFI
[15]
  MFI: 248000 MFI
[16]
  MFI: 3.06e+06 MFI

B3: TDI-Y-007 (antibody, V domains shown)
VH: EVHLLESGGGLVQPGGSLRLSCAASGFIFSSNAMSWVRQAPGKGLEWVSAISGYGGNTYYADSVKGRFTISRDNSKNTLYLQMNSLRAEDTAVYYCAKWGTYIVGATGDYWGQGTLVTVSS
VL: QSALTQPPSASGSPGQSVTISCTGTSNDVGGYNYVSWYQQHPGKAPKLLIYEVSKRPSGVPDRFSGSQSGNTASLTVSGLQAEDEADYYCSSYAGSNNWVFGGGTKLTVL
notes: also called 4B2 (recombinant, human IgG1 constant region)
[1]
  binding result: no binding (tested: 10 µg/mL)
[2]
  EC50: 17 nM
[3]
  EC50: 44.9 nM
[17]
  EC50: 17 nM
[5]
  EC50: 45 nM
[6]
  EC50 (read off the curve): ~40 nM
[8]
  Kd: 1.29 nM
  koff: 0.000597 s⁻¹
  kon: 464000 M⁻¹ s⁻¹
[9]
  BLI total binding capacity (Reference Biosensor): 0.299

B4: 4-B2 (hybridoma antibody) (antibody, V domains shown)
VH: B3 VH
VL: B3 VL
notes: AlivaMab mouse hybridoma antibody; also called 4-B2-A
[10]
  EC50: 40.5 nM
[11]
  RLU: 101000 RLU
[12]
  RLU: 392000 RLU
[13]
  EC50: 28.5 nM
[14]
  MFI: 358000 MFI
[18]
  binding result: no binding
[15]
  MFI: 152000 MFI
[16]
  MFI: 2.82e+06 MFI

Reference: patent publication US20240262910A1 (Memorial Sloan Kettering, published 2024)
